Measured values reported in the Immune Epitope Database (IEDB).

Target: HLA-A*02:01
Assay: IEDB peptide-MHC binding, purified MHC/competitive/radioactivity; ≥ and ≤ were set here for values at or beyond the usual limits of such assays
Details: source organism: Mycobacterium tuberculosis H37Rv

| Sequence | IC50 [µM] |
| --- | --- |
| TEVGQDQYV | ≥ 250 |
| QAQTRHPAT | ≥ 250 |
| LTRAILIRV | 53 |
| GLWLSVAAV | 0.11 |
| AYGSFVRTV | 13 |
| RTVSLPVGA | 2.5 |
| HVYAHQAQT | 5.5 |
| ELAAEPTEV | 1.8 |
| GSFVRTVSL | 59 |
| ALLALTRAI | 0.42 |
